Results taken from patent US20150111954, “LIN28/LET-7 CRYSTAL STRUCTURES, PURIFICATION PROTOCOLS, AND MOLECULAR PROBES SUITABLE FOR SCREENING ASSAYS AND THERAPEUTICS” (PRESIDENT AND FELLOWS OF HARVARD UNIVERSITY, published 2015).

How the values were obtained:
Lin28a full-length = target: T1, Lin28a full-length (Mus musculus, UniProt Q8K3Y3 Q8K3Y3:1-209); assay: EMSA; conditions: tags: His6 removed by TEV; label: 5'-32P; stem-loop with 3' single-stranded GGAG
T1 sequence: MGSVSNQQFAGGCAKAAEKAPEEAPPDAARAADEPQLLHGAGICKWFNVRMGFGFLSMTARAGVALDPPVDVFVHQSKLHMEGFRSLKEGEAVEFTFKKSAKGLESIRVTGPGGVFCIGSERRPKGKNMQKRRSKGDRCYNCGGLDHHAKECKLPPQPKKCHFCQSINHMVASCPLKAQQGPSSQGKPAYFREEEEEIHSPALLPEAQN
Protocol: (§1) FIG. 9. Domain mapping and structural analysis of Lin28 protein, Related to FIG. 2. (A) EMSA of Lin28 truncations. […] Full-length preE-let-7d was used as probe, titrated with protein constructs indicated (left to right: 8 nM, 33 nM, 130 nM, 520 nM, 2.1 μM, 8.3 μM, 33.3 μM). (B) ¹⁵N-NOESY of the linker region. Homonuclear 1H/1H NOE spectral strips belonging to the residue numbers marked in red were taken from a 3D 15N-selected NOESY-HSQC, and only the amide region is shown for inter-residue backbone NOEs. Diagonal peaks are marked with a diagonal line and crosspeaks are marked with a cross. The linker region is missing inter-residue NOEs, while CCHC has amide-amide interactions evident from crosspeaks. (C) Plot of secondary shifts for Ca, CP, and C′ vs. residue number. Domain boundaries, consistent as in FIG. 2A, are marked with dashed grey lines. (D) EMSA of protein linker deletion constructs. Increasing amounts of protein (Lin28 35-187, with or without 9-residue internal deletion in the linker region) were added to radioactively labeled fragment of pre-let-7f-1 indicated. The concentrations of protein in each lane are as follows: 5 nM, 20 nM, 78 nM, 313 nM, 1.2 μM, 5 μM, 20 μM. (E) In vivo processing assay of pri-miR-122 and pri-miR-16, similar to main FIG. 2D. 293T cells (12 well) were co-transfected with Lin28 (100 ng) with pri-miR-122 or pri-miR-15-16 (750 ng). […]

[1] = target: T2, Lin28a delta-delta (terminal truncations and 9-residue linker deletion) (Mus musculus, UniProt Q8K3Y3 SEQ:4-151); assay: EMSA; 9-residue linker deletion supports binding; slightly lower affinity than full-length suggested; conditions: tags: His6 removed by TEV; domain-swapped dimer in crystal); label: 5'-32P; stem-loop with 3' single-stranded GGAG
T2 chain: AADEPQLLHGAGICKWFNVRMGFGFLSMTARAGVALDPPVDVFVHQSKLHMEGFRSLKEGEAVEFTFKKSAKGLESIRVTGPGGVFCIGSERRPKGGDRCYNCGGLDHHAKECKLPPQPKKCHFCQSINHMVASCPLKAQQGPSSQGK
Description: FIG. 2. Linker between CSD and CCHCx2 is flexible. See also FIG. 9. (A) Longitudinal (R1) and transverse (R2) relaxation rates and the ratio (R2/R1), plotted against the residue number. Relatively more dynamic regions are marked with a light yellow box. (B) Alignment of internal deletions in the linker, indicated with the number of amino acids deleted on left (SEQ ID NOS 84-87, respectively, in order of appearance). (C) EMSAs with preE-let-7d as probe, mixed with increasing concentrations (0.005, 0.02, 0.08, 0.3, 1.2, 5, 20 μM) of linker deletion constructs of Lin28(16-184): *, free probe; **, complex. (D) Quantitative RT-PCR results for in vivo levels of mature let-7g. Lin28Δ is truncated at both N and C termini. Lin28ΔΔ has both of the terminal extensions and the linker removed. The standard deviation is calculated from triplicate experiments; U6 RNA levels were used for normalization. (E) and (F) Western blots of Trizol bottom layer for transfections shown in (D).

[2] = target: T3, Lin28a (16-184), CSD-linker-CCHCx2 (Mus musculus, UniProt Q8K3Y3 SEQ:4-172); assay: EMSA; comparable affinity to full-length; Kd bins only in figure; 20 mM Tris 7.5, 100 mM NaCl, 50 uM ZnCl2, yeast tRNA; conditions: tags: His6 removed by TEV (GSG remnant); label: 5'-32P; stem-loop with 3' single-stranded GGAG
T3 chain: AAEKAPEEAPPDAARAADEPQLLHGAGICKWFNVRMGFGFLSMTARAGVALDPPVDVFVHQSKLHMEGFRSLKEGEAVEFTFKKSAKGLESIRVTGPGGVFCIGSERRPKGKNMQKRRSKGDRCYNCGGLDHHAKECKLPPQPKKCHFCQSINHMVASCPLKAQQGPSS
Protocol: as §1

[3] = target: T2, Lin28a delta-delta (terminal …); assay: structure; crystal structure 2.8 A, Zn; conditions: tags: His6 removed by TEV; domain-swapped dimer in crystal); stem-loop with 3' single-stranded GGAG
Protocol: (§2) Crystals of all three complexes were produced by vapor diffusion, using the hanging drop method. Concentrated complexes (10 mg/mL) were mixed 1 μL:1 μL with reservoir solution, and crystals grew overnight. Reservoir solution contained 0.6M NaH₂PO₄, 1.4M K₂HPO₄ and 5% glycerol for preEM-let-7d and preEM-let-7f-1 complexes; for preEM-let-7g, it contained 0.1M Tris pH 8.0, 32% w/v PEG 4000, and 0.2M Sodium Acetate. Crystals were harvested with mother liquor supplemented with 20% glycerol and frozen in liquid nitrogen. Diffraction data was indexed and scaled using XDS (Kabsch, 2010) and SCALA (Evans, 2006) in a workflow provided by autoPROC (Vonrhein et al., 2011). Experimental phases were obtained for Lin28:pre-let-7d complex by anomalous scattering from zinc atoms (SAD), using HKL2MAP (Schneider and Sheldrick, 2002) and AutoSol (Terwilliger et al., 2009). The structures of Lin28: preEM-let-7f-1 and Lin28: preEM-let-7g were solved by molecular replacement with Lin28: preEM-let-7d as search model using Phaser (McCoy et al., 2007). Density modification and NCS averaging over 6 or 2 copies were performed with PHENIX (Adams et al., 2010) to obtain electron density maps for model building with COOT (Emsley and Cowtan, 2004) and PHENIX was used for further refinement. […]

[4] = target: T2, Lin28a delta-delta (terminal …); assay: structure; crystal structure 2.0 A, Zn; conditions: tags: His6 removed by TEV; domain-swapped dimer in crystal); stem-loop with 3' single-stranded GGAG
Protocol: as §2

[5] = target: T2, Lin28a delta-delta (terminal …); assay: EMSA; probe is a pre-let-7f-1 fragment; conditions: tags: His6 removed by TEV; domain-swapped dimer in crystal); label: 5'-32P
[6] = target: T2, Lin28a delta-delta (terminal …); assay: structure; crystal structure 2.9 A, Zn; conditions: tags: His6 removed by TEV; domain-swapped dimer in crystal); stem-loop with 3' single-stranded GGAG
Protocol: as §2

Lin28b = target: T4, Lin28b (Homo sapiens, UniProt Q6ZN17 Q6ZN17:1-250); assay: EMSA; effects of preEM point mutations equivalent to mouse Lin28a; conditions: stem-loop with 3' single-stranded GGAG
T4 sequence: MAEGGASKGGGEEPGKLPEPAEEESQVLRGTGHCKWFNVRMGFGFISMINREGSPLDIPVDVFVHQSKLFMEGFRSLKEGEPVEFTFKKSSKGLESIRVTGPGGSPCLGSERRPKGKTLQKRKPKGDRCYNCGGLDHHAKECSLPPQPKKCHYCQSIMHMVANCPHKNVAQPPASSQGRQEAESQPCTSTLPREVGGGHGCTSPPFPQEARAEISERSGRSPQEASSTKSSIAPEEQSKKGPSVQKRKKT

Lin28a = target: T5, Lin28a (Homo sapiens, UniProt Q9H9Z2 Q9H9Z2:2-209); assay: as above; conditions: stem-loop with 3' single-stranded GGAG
T5 sequence: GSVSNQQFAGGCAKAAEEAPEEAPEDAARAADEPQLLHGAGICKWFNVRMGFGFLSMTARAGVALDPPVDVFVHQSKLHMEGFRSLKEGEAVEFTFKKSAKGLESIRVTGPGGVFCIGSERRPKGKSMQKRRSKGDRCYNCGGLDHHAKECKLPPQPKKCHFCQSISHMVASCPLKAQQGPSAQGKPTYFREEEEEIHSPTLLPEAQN

[7] = target: T3, Lin28a (16-184), CSD-linker-CCHCx2; assay: EMSA; minimal preE, sufficient for high-affinity binding; complex also studied by NMR; conditions: tags: His6 removed by TEV (GSG remnant); stem-loop with 3' single-stranded GGAG

B1: preE-let-7d (ssRNA)
RNA: UUAGGGCAGAGAUUUUGCCCACAAGGAGUU
binding result (Lin28a full-length): binds | binding result [1]: binds | binding result [2]: binds

B2: preEM-let-7f-1 (ssRNA)
RNA: GGGGUAGUGAUUUUACCCUGGAG
binding result [3]: binds

B3: preEM-let-7g (ssRNA)
RNA: GGGGUCUAUGAUACCACCCCGGAG
binding result [4]: binds

B4: preE-let-7f-1 (ssRNA)
RNA: GUGGGGUAGUGAUUUUACCCUGUUUAGGAGAU
binding result [5]: binds

B5: preEM-let-7d (ssRNA)
RNA: GGGCAGAGAUUUUGCCCGGAG
binding result [6]: binds | binding result (Lin28b): binds | binding result (Lin28a): binds | binding result [7]: binds
